Measured values as given in paper PMC8649778.

Molecular target: APRc_(110–231)His, soluble domain of APRc fused to a C-terminal His tag (Rickettsia conorii) (UniProt Q92FY8)
Experiment: shift of migration in nonreducing SDS-PAGE with Western blot

APRc_(110–231)His, soluble domain of APRc fused to a C-terminal His tag (from UniProt Q92FY8 110-231) (domain or fragment)
stoichiometry N: 2
